Data published in article PMC2872656.

Target: Pyrococcus abyssi PAB1135 protein (trypsin-treated) (Pyrococcus abyssi) (UniProt Q9UXX8)
Assay: SEC; trypsin-treated PAB1135 on Superdex 75 XK 16/60; 50 mM Tris-HCl pH 8.0, 150 mM NaCl, 0.5 mM EDTA; apparent mass against mass markers

stoichiometry N: 2
Substance: Pyrococcus abyssi PAB1135 protein (trypsin-treated) (from UniProt Q9UXX8 1-154) (natural protein)
